Laboratory results from PMC10215022 (mAbs, 2023).

Target: SARS-CoV-2 Wuhan (WT) spike protein RBD, His-tagged (SARS-CoV-2 Wuhan (WT), UniProt P0DTC2)
Assay: SPR

B1: imdevimab (REGN10987) (antibody, V domains shown)
VH: QVQLVESGGGVVQPGRSLRLSCAASGFTFSNYAMYWVRQAPGKGLEWVAVISYDGSNKYYADSVKGRFTISRDNSKNTLYLQMNSLRTEDTAVYYCASGSDYGDYLLVYWGQGTLVTVSS
VL: QSALTQPASVSGSPGQSITISCTGTSSDVGGYNYVSWYQQHPGKAPKLMIYDVSKRPSGVSNRFSGSKSGNTASLTISGLQSEDEADYYCNSLTSISTWVFGGGTKLTVL
  Kd: 0.087 nM
  koff: 0.00029 s⁻¹
  kon: 3.4e+06 M⁻¹ s⁻¹

B2: casirivimab (REGN10933) (antibody, V domains shown)
VH: QVQLVESGGGLVKPGGSLRLSCAASGFTFSDYYMSWIRQAPGKGLEWVSYITYSGSTIYYADSVKGRFTISRDNAKSSLYLQMNSLRAEDTAVYYCARDRGTTMVPFDYWGQGTLVTVSS
VL: DIQMTQSPSSLSASVGDRVTITCQASQDITNYLNWYQQKPGKAPKLLIYAASNLETGVPSRFSGSGSGTDFTFTISGLQPEDIATYYCQQYDNLPLTFGGGTKVEIK
  Kd: 0.071 nM
  koff: 0.00021 s⁻¹
  kon: 3e+06 M⁻¹ s⁻¹
